Measured values from patent publication US20160216269A1 (BIOCARE MEDICAL, published 2016).

Target: T1, SOX10 epitope peptide QGGTAAIQAHYKSAH (human)
T1 construct: One of the overlapping peptides of about 15 amino acids covering human SOX10 147-253
T1 peptide: QGGTAAIQAHYKSAH
Test: epitope mapping with overlapping SOX10 peptides, direct ELISA and dot blot
Description: In order to determine the peptide sequence of SOX10 that is recognized by anti-SOX10 antibodies such as BC34, epitope mapping may be conducted perhaps using two assays: direct ELISA and even dot blot. In an ELISA assay, the sensitivity and specificity of the anti-SOX10 [BC34] antibody may be determined by measuring the antibody titer at about 1:500 and about 1:1000. Overlapping peptides at a length of about 15 amino acids each, covering the human SOX10 protein sequence from perhaps 147 to 253 amino acids, may be used to determine a sequence of BC34 binding.

binding result: binds
B1: mouse monoclonal anti-SOX10 antibody BC34 (antibody, V domains shown)
VH: QVTLKESGPGILQPSQTLSLTCSFSGFSLSTFLIGVGWIRQPSGKGLEWLAHIWWNDNKYYNTALKNRLTISKDTSNNQVFLKIASVDTTDTATYYCVRMAGIGGTDAMDYWGQGTSVTVSS
VL: DIVLTQSPASLAVSLGQRATISCRASEIVEYYGTNLLQWYQQKPGQPPKLLIYAASNVESGVPARFSGSGSGTDFSLNIHPVEEDDIAIYFCQQSRKVPWTFGGGTKLEIK
notes: also called anti-SOX10 antibody [clone BC34]; SOX10 [BC34]
